Data as given in patent publication US20230381350A1 (PRECIRIX N V, published 2023).

T1: human FAP recombinant protein (human, UniProt Q12884 26-760)
T1 construct: The protein was biotinylated with sulfo-NHS-SS-biotin for bio-layer interferometry; also called extracellular domain of human FAP with N-terminal His6-tag
T1 sequence: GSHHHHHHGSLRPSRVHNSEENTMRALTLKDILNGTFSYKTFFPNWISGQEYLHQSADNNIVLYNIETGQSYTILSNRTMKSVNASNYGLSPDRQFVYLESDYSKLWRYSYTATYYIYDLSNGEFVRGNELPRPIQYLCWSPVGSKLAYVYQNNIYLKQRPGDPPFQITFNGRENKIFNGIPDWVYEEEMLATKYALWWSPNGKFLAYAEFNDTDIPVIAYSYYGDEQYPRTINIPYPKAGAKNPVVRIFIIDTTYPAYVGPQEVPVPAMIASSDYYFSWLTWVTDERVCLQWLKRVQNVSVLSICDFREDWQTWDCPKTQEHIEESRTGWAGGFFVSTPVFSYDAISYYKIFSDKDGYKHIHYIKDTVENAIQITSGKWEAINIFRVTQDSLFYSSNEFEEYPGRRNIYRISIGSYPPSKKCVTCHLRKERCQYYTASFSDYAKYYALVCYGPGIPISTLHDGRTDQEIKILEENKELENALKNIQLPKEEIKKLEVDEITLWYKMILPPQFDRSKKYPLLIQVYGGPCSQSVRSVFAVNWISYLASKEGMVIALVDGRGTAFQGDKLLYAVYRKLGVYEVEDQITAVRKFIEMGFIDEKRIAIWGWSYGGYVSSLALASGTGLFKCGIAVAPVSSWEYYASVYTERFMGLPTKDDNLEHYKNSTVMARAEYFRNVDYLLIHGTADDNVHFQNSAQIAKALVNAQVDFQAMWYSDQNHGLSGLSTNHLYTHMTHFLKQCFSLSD

T2: murine FAP recombinant protein (murine, UniProt P97321 26-761)
T2 construct: The protein was biotinylated for bio-layer interferometry; also called extracellular domain of murine FAP with N-terminal His6-tag
T2 sequence: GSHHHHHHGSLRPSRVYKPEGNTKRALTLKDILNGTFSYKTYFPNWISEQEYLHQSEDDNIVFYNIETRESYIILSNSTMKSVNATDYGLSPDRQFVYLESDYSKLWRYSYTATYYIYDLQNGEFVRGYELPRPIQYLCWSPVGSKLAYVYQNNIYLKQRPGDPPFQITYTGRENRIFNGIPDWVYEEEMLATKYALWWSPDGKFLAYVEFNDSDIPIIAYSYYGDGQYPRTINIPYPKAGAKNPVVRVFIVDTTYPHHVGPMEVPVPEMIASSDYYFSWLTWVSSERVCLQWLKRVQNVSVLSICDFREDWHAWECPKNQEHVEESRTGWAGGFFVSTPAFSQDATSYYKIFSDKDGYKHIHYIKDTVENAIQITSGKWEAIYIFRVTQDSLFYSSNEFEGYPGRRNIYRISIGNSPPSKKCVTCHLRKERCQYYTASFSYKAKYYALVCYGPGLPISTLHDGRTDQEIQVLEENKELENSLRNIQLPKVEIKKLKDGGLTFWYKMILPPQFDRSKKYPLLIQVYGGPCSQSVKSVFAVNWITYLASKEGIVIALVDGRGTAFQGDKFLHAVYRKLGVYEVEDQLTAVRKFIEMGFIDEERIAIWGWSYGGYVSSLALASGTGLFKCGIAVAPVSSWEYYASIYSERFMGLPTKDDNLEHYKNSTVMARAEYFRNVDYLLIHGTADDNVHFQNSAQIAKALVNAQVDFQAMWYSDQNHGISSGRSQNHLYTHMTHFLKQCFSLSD

T3: murine FAP expressed on cells (murine, UniProt P97321 1-761)
T3 construct: also called murine FAP cell surface protein
T3 sequence: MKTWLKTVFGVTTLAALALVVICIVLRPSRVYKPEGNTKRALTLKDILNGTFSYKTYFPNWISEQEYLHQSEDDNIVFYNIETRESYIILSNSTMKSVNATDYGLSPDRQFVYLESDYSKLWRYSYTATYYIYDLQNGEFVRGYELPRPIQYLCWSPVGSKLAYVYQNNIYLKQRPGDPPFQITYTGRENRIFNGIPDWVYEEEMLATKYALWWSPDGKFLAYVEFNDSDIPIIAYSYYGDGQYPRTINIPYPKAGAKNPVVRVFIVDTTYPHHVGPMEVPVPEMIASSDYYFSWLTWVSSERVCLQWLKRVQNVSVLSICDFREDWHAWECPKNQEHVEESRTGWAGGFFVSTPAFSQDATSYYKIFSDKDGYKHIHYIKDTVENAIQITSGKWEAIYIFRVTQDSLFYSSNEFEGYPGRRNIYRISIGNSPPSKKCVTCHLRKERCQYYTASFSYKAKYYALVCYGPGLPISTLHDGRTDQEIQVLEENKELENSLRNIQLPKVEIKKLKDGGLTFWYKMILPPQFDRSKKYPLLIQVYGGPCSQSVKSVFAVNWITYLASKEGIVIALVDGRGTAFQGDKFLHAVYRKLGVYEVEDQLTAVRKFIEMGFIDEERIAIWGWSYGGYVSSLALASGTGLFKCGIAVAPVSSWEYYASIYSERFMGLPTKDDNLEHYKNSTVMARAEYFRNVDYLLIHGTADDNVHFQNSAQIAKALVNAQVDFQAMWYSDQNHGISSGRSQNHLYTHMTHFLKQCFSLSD


Legend:
[1] = target: T4, human DPP IV recombinant protein (human, UniProt P27487 29-766); assay: ELISA, coated human DPP IV, HA-His6-tagged VHH extract, anti-HA detection
T4 construct: extracellular domain; Bought protein; also called Dipeptidyl amino-peptidase IV
Experimental: (§1) The day before measurement, 0.1 μg recombinant protein at a concentration of 1 μg/mL in 100 mM NaHCO₃, pH 8.2 was coated in a 96-well ELISA plate (Nunc MaxiSorp). Per VHH clone also a blank coated well was foreseen (only buffer). The wells were overcoated with protein-free T20 (PBS) blocking buffer (Pierce). After washing with PBS, pH7.4, 0.05% Tween, VHH-containing bacterial freeze-thaw extract was added to every well. Binding of HA-His₆-tagged VHHs was detected by using mouse anti-HA.11 epitope tag (clone 16B12, Biolegend) as the primary Ab and goat anti-mouse IgG (whole molecule) alkaline phosphatase conjugate (Sigma-Aldrich) as the secondary Ab, with thorough washing with PBS, pH 7.4, 0.05% Tween in between. Signals were developed using phosphatase substrate (Sigma-Aldrich) in AP blot buffer (100 mM NaCl, 50 mM MgCl₂, 100 mM Tris, pH 9.5). The absorbance was determined at 405 nm using an absorbance microplate reader (Molecular Devices). Per clone the ratio was determined between the absorbance in the antigen-coated well versus the well without antigen.

[2] = target: T1, human FAP recombinant protein; assay: ELISA, coated human FAP recombinant protein, HA-His6-tagged VHH extract, anti-HA detection
Experimental: as §1

[3] = target: T2, murine FAP recombinant protein; assay: ELISA on coated recombinant protein, VHH-containing bacterial extract, anti-HA detection, signal-to-background ratio
Experimental: as §1

[4] = target: T4, human DPP IV recombinant protein; assay: as above
Experimental: as §1

[5] = target: T3, murine FAP expressed on cells; assay: flow cytometry on murine FAP-transfected HEK293 cells, VHH-containing bacterial extract, anti-HA and PE-conjugated secondary detection, Δmfi against cells without VHH
Experimental: The cell binding was tested by flow cytometry experiments. Per test condition 1×10⁵ to 2×10⁵ cells, washed in PBS, 0.5% BSA, were pelleted in the well of a 96-well U-bottom plate. The cell pellets were resuspended and incubated with the VHH-containing bacterial freeze-thaw extracts (diluted in PBS, 0.5% BSA). Binding of HA-His₆-tagged VHHs was detected by using mouse anti-HA.11 epitope tag (clone 16B12, Biolegend) as the primary detection antibody and PE-conjugated rat anti-mouse IgG1 (clone A85-1, BD Pharmingen) as the secondary detection antibody, with washing with PBS, 0.5% BSA in between, and finally resuspended in PBS, 0.5% BSA.
Flow cytometry was performed on a FACS Canto II (BD Biosciences). Data were analyzed using FlowJo software. Based on the forward scatter-side scatter plot a single cell gate was drawn. The median fluorescence intensity was determined on a histogram for the phycoerythrin signal of the single cells. The difference in median fluorescence intensity (A mfi) was calculated relative to a test condition without incubation of VHHs (cells+primary Ab+secondary Ab), and are shown in FIG. 3.

[6] = target: T1, human FAP recombinant protein; assay: bio-layer interferometry, biotinylated human FAP on sensor
Experimental: The kinetic parameters of antigen binding by purified VHHs were determined via bio-layer interferometry with an Octet RED96 instrument (ForteBio). The assay was performed at 25° C. with shaking at 1000 rpm. Streptavidin coated SA sensors were equilibrated in assay buffer (HBS supplemented with 0.5% BSA, 0.1% Tween), before loading for 5 min with the biotinylated FAP recombinant protein at a concentration of 5 μg/ml. His₆-tagged VHHs were analyzed in a threefold serial dilution from 30 nM to 0.4 nM in assay buffer (except for VHH B3 binding murine FAP recombinant protein, for which a fivefold serial dilution from 1000 nM to 1.6 nM was employed). First the baseline was measured for 180 s in assay buffer, followed by 5 subsequent association phases of 180 s with the VHH preparations in increasing order of concentration, with 75 s intermediate dissociation phases in assay buffer in between, and a final dissociation phase in assay buffer of 30 min. […]
Binding curves were exported and analyzed using the BIAevaluation analysis software (GE Healthcare). […]
(§2) Table 7 gives an overview of the kinetic parameters of antigen binding for His₆-tagged VHHs B1, B2, B3 and B4 (SEQ ID NO: 21-24), as determined by bio-layer interferometry with biotinylated human or murine FAP recombinant protein that was loaded on the sensor.

[7] = target: T1, human FAP recombinant protein; assay: bio-layer interferometry (Octet RED96), biotinylated human FAP on streptavidin sensor, kinetic titration, 25 °C
Experimental: (§3) The kinetic parameters of antigen binding by purified VHHs were determined via bio-layer interferometry with an Octet RED96 instrument (ForteBio). The assay was performed at 25° C. with shaking at 1000 rpm. Streptavidin coated SA sensors were equilibrated in assay buffer (HBS supplemented with 0.5% BSA, 0.1% Tween), before loading for 5 min with the biotinylated FAP recombinant protein at a concentration of 5 μg/ml. His₆-tagged VHHs were analyzed in a threefold serial dilution from 30 nM to 0.4 nM in assay buffer (except for VHH B3 binding murine FAP recombinant protein, for which a fivefold serial dilution from 1000 nM to 1.6 nM was employed). First the baseline was measured for 180 s in assay buffer, followed by 5 subsequent association phases of 180 s with the VHH preparations in increasing order of concentration, with 75 s intermediate dissociation phases in assay buffer in between, and a final dissociation phase in assay buffer of 30 min. In every assay a reference sensor loaded with FAP recombinant protein was included that was incubated in assay buffer during the association phases.
(§4) Binding curves were exported and analyzed using the BIAevaluation analysis software (GE Healthcare). First the y-axes of the different curves were aligned to the median of the last 5 s of the baseline measurement. Subsequently, the sensorgram of the reference sensor was subtracted from all other sensorgrams. The resulting binding curve was fitted using a general fit with the ‘kinetic titration with drift’ binding model (1:1 (antigen:analyte) model; Karlsson, R. et al (2006), Analyzing a kinetic titration series using affinity biosensors. Analytical Biochemistry 349: 136-147), with Rmax fitted global, RI local and drift set to 0.
as §2

[8] = target: T2, murine FAP recombinant protein; assay: bio-layer interferometry (Octet RED96), biotinylated murine FAP on streptavidin sensor, kinetic titration, 25 °C
Experimental: as §3, §4, §2

T4 sequence (P27487 29-766): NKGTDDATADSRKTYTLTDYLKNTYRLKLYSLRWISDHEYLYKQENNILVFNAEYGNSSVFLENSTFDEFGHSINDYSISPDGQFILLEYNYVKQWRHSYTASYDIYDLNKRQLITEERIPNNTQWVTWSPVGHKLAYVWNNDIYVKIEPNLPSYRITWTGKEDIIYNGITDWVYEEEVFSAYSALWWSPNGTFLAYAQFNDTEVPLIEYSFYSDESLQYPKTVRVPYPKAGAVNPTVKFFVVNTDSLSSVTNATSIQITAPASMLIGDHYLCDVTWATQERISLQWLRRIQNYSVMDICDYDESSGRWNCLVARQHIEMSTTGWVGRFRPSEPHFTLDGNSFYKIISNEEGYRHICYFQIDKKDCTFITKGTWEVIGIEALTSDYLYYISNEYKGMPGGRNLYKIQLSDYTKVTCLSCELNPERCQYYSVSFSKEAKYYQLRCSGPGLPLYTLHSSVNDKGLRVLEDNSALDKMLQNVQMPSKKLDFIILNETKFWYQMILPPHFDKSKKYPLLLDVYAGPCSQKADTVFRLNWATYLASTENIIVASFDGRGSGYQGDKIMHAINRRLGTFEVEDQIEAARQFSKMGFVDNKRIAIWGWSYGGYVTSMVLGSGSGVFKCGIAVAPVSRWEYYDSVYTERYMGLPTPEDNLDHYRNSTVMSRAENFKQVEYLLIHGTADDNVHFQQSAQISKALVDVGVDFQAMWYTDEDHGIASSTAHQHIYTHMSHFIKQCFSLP

signal-to-background ratio [1] | signal-to-background ratio [2] | binding result [3] | binding result [4] | binding result [5] | Kd [6] [nM] | Kd [7] [nM] | koff [7] [s⁻¹] | kon [7] [M⁻¹ s⁻¹] | Kd [8] [nM] | koff [8] [s⁻¹] | kon [8] [M⁻¹ s⁻¹] | Binder
~1 | > 25 | no binding | no binding | no binding |  |  |  |  |  |  |  | HA-His6-tagged VHH B3 (VHH, also called B3 with HA-His6-tag) VHH: QVQLQESGGGLVQAGGSLRLSCAVSGRLFSTNAMGWYRQAPGKQRELVAGITGGDRSNYADSVKGRFTISRDNGKNTLYLQMNSLKPEDTAVYYCNFYPPIVGDYWGQGTQVTVSS
 |  |  |  |  | < 0.05 | 0.0378 | 2.7e-05 | 700000 | 0.742 | 0.0014 | 1.9e+06 | His6-tagged VHH B1 (VHH, Purified, unlabelled; used in bio-layer interferometry; also called B1 with His6-tag) VHH: DVQLVESGGGLVQPGGSLRLSCVASGRLSSSNSMAWYRQVPGKRRELVAGITGGGETNYADFVGGRFTISRDNAKNGLYLQLNGLKPEDTAAYYCNFWPPLINYWGQGTQVTVSS
